For experiment [1], the target named is T1, human IL-34 (human, UniProt Q6ZMJ4 21-242).
T1 sequence: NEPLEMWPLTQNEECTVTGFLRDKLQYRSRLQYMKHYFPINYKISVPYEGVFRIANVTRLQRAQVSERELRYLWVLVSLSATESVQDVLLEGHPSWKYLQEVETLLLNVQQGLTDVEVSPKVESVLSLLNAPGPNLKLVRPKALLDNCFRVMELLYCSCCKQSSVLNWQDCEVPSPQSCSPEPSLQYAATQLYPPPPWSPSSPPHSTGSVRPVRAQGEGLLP
Put plainly: cell-based or functional assay.

The target in experiment [2] is T1, human IL-34. Put plainly: SPR BIAcore 8K, 37 C, antibody captured on Protein A chip, IL-34 in solution. The protocol: (§1) Binding affinity of anti-IL-34 monoclonal antibodies of the present disclosure to human and/or cynomolgus monkey (cyno) IL-34 may be determined by methods known in the art. Briefly, the binding affinity and kinetics of the antibody are evaluated by surface plasmon resonance using BIAcore™ 8K (Cytiva) at 37° C. […] For each cycle, 200 μL IL-34 is flowed over the immobilized antibody at 100 μL/minute, and then dissociated for 20 minutes. The chip surface is regenerated with 50 μL of glycine buffer at pH 1.5 at a flow rate of 100 μL/minute. The data are fit to a 1:1 Langmiur binding mode to derive kon, koff and to calculate KD.
(In general: In SPR one partner is held on a chip, and binding of the other changes the refractive index at the surface.)

Experiment [3] concerns the target T2, cynomolgus monkey IL-34 (cynomolgus monkey, UniProt G7Q1L3 21-242).
T2 construct: It was biotinylated in the CSF1R displacement ELISA; also called cyno IL-34
T2 sequence: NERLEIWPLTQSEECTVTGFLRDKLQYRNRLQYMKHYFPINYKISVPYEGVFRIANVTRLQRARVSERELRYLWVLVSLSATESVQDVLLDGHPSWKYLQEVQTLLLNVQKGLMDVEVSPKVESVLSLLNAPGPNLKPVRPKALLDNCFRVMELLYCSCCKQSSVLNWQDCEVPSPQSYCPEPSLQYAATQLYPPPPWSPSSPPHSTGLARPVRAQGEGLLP
Described as above. The protocol: as §1

For experiment [4], the target named is T1, human IL-34. Put plainly: competition ELISA, displacement of biotinylated human IL-34 from coated hCSF1R_Fc. The protocol: (§2) CSF1R extracellular domain proteins (hCSF1R_Fc commercially available from R&D Cat #329-MR, cynomolgus CSF1R ECD-Fc (AAA is a linker between CSF1R extracellular domain and Fc) (SEQ ID NO: 34)) can be bound to an ELISA plate at concentrations of 30 nM in order to capture soluble biotinylated IL-34 and allowed to bind for one hour. After washing and blocking plate, biotinylated IL-34 may be added, then detected via streptavidin conjugated peroxidase. Concentrations of labeled IL-34 near the 80% binding level (EC₈₀) (3.7 nM) may be used in conjunction with a range of antibody concentrations (0-100 nM) to determine concentration of antibody required to displace IL-34 from CSF1R. After 1 hr incubation, IL-34 bound to CSF1R is detected via streptavidin conjugated peroxidase. The antibodies are assayed (n=2) and the average and standard deviation at each concentration are calculated. The potency of an antibody to displace IL-34 from CSF1R is reported as IC₅₀ (nM) with the calculated confidence interval (CI) in Table 4 and Table 5.

Experiment [5] concerns the target T2, cynomolgus monkey IL-34. Description: competition ELISA, displacement of biotinylated cyno IL-34 from coated cyno CSF1R ECD-Fc. The procedure: as §2
In general terms: In an ELISA, binding on a coated surface is turned into a signal by an enzyme label.

Broadly, the Kd is the free concentration of one partner at which half of the binding sites on the other are occupied at equilibrium, for simple one-to-one binding. What is called koff is the first-order rate constant of dissociation. By kon is commonly meant a measure of how fast the partners come together. By IC50 is commonly meant the concentration that inhibits the measured activity by half.

B1: Antibody 1 (antibody, human IgG4 S228P, kappa, F234A L235A, V domains shown)
VH: EVQLLESGGGLVQPGGSLRLSCAASGFAFSSYRMSWVRQAPGKGLEWVSAISASGGKTYYADSVKGRFTISRDNSKNTLYLQMNSLRAEDTAVYYCAKRGYIWHAFDLWGRGTLVTVSS
VL: EIVLTQSPGTLSLSPGERATLSCRASQSVYSSYLAWYQQKPGQAPRLLIYGASSRATGIPDRFSGSGSGTDFTLTISRLEPEDFAVYYCQVVGSSPPFTFGGGTKVEIKR
notes: Human anti-IL-34 antibody with IgG4 PAA hinge/Fc and kappa light chain; also called Exemplified Antibody 1; exemplified antibody 1
Consider B1, for which the “IC50 (ug/ml), neutralization of human IL-34 induced luciferase reporter activity” value in experiment [1] was determined as 0.0531 µg/mL. In experiment [2], this molecule returned a Kd of 31.2 pM, a koff of 0.00026 s⁻¹ and a kon of 8.4e+06 M⁻¹ s⁻¹. In experiment [3], this molecule yielded a Kd of 40.9 pM, a koff of 0.0003 s⁻¹ and a kon of 7.9e+06 M⁻¹ s⁻¹. This molecule also came in with an IC50 in experiment [4] of 27.4 pM. The molecule also had an IC50 in experiment [5] of 975 pM.

The record behind these values is US20260132190A1 (Eli Lilly, published 2026).
